# Assay results published in paper PMC6452516, “Biochemical characterization of three new α-olefin-producing P450 fatty acid decarboxylases with a halophilic property” (Biotechnology for Biofuels, 2019).
# B1: OleTSQ (Lacicoccus qingdaonensis) (protein)
# chain: MATIKRDKGLDNSVKVMKQGYLYTTNQRERLGVTDGVFETRALGGKRIIVLSGKDGAELFYDNDKIERSGTLPKRVVNTLFGKGAIHTTTGKVHIDRKALFMSLMTEGNLKYLRELTRNLWFANTQRMESMDQVNVYRESIIVLTKVGTRWAGVQAPEKEIENIATDMDIMIDSFKAIGSAFKGYREAKAARRRVEDWLEDQIIQTRKGKIHPPKGTALYEFAHWKDYKGEPMDSRLCGIDLMNTFRPLIAINRFVAFGALAMYENPVAREKIKQDDDYAYMFAQEVRRFYPFVPYLPAKAKVDFQYKGYEIEKDTMLALDIYGTMHDPNVWEDPNEFYPERFKDWDGSPFDLIPQGGGDYHTNHRCAGEWMTVIIMEETMKYFASRINYDVPEQDLTVDLNSLPGYIKSGFVIENVQENVDRT
# notes: recombinant, codon-optimized gene in pET28b (NdeI/XhoI), N-terminal His6 tag, E. coli BL21(DE3), Ni-NTA
# B2: OleTJH (Jeotgalicoccus aerolatus) (protein)
# chain: MASLKRDKGLDNTLKVMKQGYLYTTNQRNRLNTTVFETKALGGKPFAVVTGKEGAEMFYNNDIVQREGMLPKRIVNTLFGKGAIHTIDGKKHVDRKALFMSLMTEGNLNYVRELTRTLWQANTQRMESMDEVNIYRESIVLLTKVGTRWAGVQAPPEQIERIATDMDIMIDSFKGLGGVFKGYKESKAARRRVEDWLEDQILETRKGNIHPPEGTALYEFAHWEDYLGNPMDSRNCAIDLMNTFRPLIAINRFVSFGLLAMHDNPVSREKIKSEPDYAYKFAQEVRRYYPFVPFLPGKAKTDIDFQGVTIPAGHGLAIDVYGTLHDESLWEDPNEFRPERFEGWDGSPFDLIPQGGGDYWTNHRCAGEWITVIIMEETMKYFAEKVTYDVPEQDLTVDLNSIPGYVKSGFVIKNVQEVVDRR
# notes: as for B1
# B3: OleTJE (Jeotgalicoccus sp. ATCC 8456) (protein)
# chain: MATLKRDKGLDNTLKVLKQGYLYTTNQRNRLNTSVFQTKALGGKPFVVVTGKEGAEMFYNNDVVQREGMLPKRIVNTLFGKGAIHTVDGKKHVDRKALFMSLMTEGNLNYVRELTRTLWHANTQRMESMDEVNIYRESIVLLTKVGTRWAGVQAPPEDIERIATDMDIMIDSFRALGGAFKGYKASKEARRRVEDWLEEQIIETRKGNIHPPEGTALYEFAHWEDYLGNPMDSRTCAIDLMNTFRPLIAINRFVSFGLHAMNENPITREKIKSEPDYAYKFAQEVRRYYPFVPFLPGKAKVDIDFQGVTIPAGVGLALDVYGTTHDESLWDDPNEFRPERFETWDGSPFDLIPQGGGDYWTNHRCAGEWITVIIMEETMKYFAEKITYDVPEQDLEVDLNSIPGYVKSGFVIKNVREVVDRT
# notes: purified recombinant P450 from E. coli, His-tagged (Ni-NTA); cloning of this control enzyme not described here
# Experiments:
# Assay in all cases: GC of initial substrate consumption, Michaelis-Menten fit
# Settings in all cases: 330 μM H2O2 as co-substrate, pH 7.4, 50 mM NaH2PO4, 500 mM NaCl, 10% glycerol, 30 °C, 15–40 nM enzyme
# [1] = substrate: CCCCCCCCCCCC(=O)O; format: biochemical, Lacicoccus qingdaonensis
# Text: GC of initial substrate consumption, Michaelis-Menten fit on OleTSQ
# [2] = substrate: CCCCCCCCCCCC(=O)O; format: biochemical, Jeotgalicoccus aerolatus
# Text: GC of initial substrate consumption, Michaelis-Menten fit on OleTJH
# [3] = substrate: CCCCCCCCCCCC(=O)O; format: biochemical, Jeotgalicoccus sp. ATCC 8456
# Text: GC of initial substrate consumption, Michaelis-Menten fit on OleTJE
protein,measurement,setting,value
B1,Km,[1],35 ± 10 µM
same,kcat,[1],9.5 ± 0.917 s⁻¹
same,kcat/Km,[1],267000 M⁻¹ s⁻¹
B2,Km,[2],46 ± 15 µM
same,kcat,[2],15.2 ± 1.88 s⁻¹
same,kcat/Km,[2],333000 M⁻¹ s⁻¹
B3,Km,[3],41 ± 4 µM
same,kcat,[3],14.3 ± 0.467 s⁻¹
same,kcat/Km,[3],350000 M⁻¹ s⁻¹
